± gives the uncertainty stated by the source.
B1: Gamma-crystallin S, residues 96 to 176; numbered along this chain, P22914 (parent)
chain: IQIFEKGDFSGQMYETTEDCPSIMEQFHMREIHSCKVLEGVWIFYELPNYRGRQYLLDKKEYRKPIDWGAASPAVQSFRRI

Variants of: B1
Experiment: abundance fitness (aPCA) (normalised: wild type 0, dead -1); higher = more abundant; growth selection in yeast, the domain comes from the species named
Settings: Homo sapiens

| Variant | abundance fitness |
| --- | --- |
| IQIFEKGDFSGQMYETTEDCPSIMEQFHMQEIHSCKVLEGVWIFYELPNYRGRQYLLDKKEYRKPIDWGAASPAVQSFRRI [R30Q] | 0.11 ± 0.088 |
| IQIFEKGDFSGQMYETTEDCPSIMEQFHMNEIHSCKVLEGVWIFYELPNYRGRQYLLDKKEYRKPIDWGAASPAVQSFRRI [R30N] | 0.044 ± 0.14 |
| IQIFEKGDFSGQMYETTEDCPSIMEQFHMDEIHSCKVLEGVWIFYELPNYRGRQYLLDKKEYRKPIDWGAASPAVQSFRRI [R30D] | 0.009 ± 0.095 |
| IQIFEKGDFSGQMYETTEDCPSIMEQFHMAEIHSCKVLEGVWIFYELPNYRGRQYLLDKKEYRKPIDWGAASPAVQSFRRI [R30A] | 0.061 ± 0.046 |
| IQIFEKGDFSGQMYETTEDCPSIMEQFHMMEIHSCKVLEGVWIFYELPNYRGRQYLLDKKEYRKPIDWGAASPAVQSFRRI [R30M] | 0.047 ± 0.076 |
| IQIFEKGDFSGQMYETTEDCPSIMEQFHMYEIHSCKVLEGVWIFYELPNYRGRQYLLDKKEYRKPIDWGAASPAVQSFRRI [R30Y] | -0.02 ± 0.1 |
| IQIFEKGDFSGQMYETTEDCPSIMEQFHMLEIHSCKVLEGVWIFYELPNYRGRQYLLDKKEYRKPIDWGAASPAVQSFRRI [R30L] | -0.031 ± 0.048 |
| IQIFEKGDFSGQMYETTEDCPSIMEQFHMGEIHSCKVLEGVWIFYELPNYRGRQYLLDKKEYRKPIDWGAASPAVQSFRRI [R30G] | 0 ± 0.038 |
| IQIFEKGDFSGQMYETTEDCPSIMEQFHMSEIHSCKVLEGVWIFYELPNYRGRQYLLDKKEYRKPIDWGAASPAVQSFRRI [R30S] | -0.07 ± 0.046 |
| IQIFEKGDFSGQMYETTEDCPSIMEQFHMKEIHSCKVLEGVWIFYELPNYRGRQYLLDKKEYRKPIDWGAASPAVQSFRRI [R30K] | 0.055 ± 0.078 |
| IQIFEKGDFSGQMYETTEDCPSIMEQFHMEEIHSCKVLEGVWIFYELPNYRGRQYLLDKKEYRKPIDWGAASPAVQSFRRI [R30E] | 0.066 ± 0.063 |
| IQIFEKGDFSGQMYETTEDCPSIMEQFHMTEIHSCKVLEGVWIFYELPNYRGRQYLLDKKEYRKPIDWGAASPAVQSFRRI [R30T] | 0.011 ± 0.073 |
| IQIFEKGDFSGQMYETTEDCPSIMEQFHMPEIHSCKVLEGVWIFYELPNYRGRQYLLDKKEYRKPIDWGAASPAVQSFRRI [R30P] | 0 ± 0.1 |
| IQIFEKGDFSGQMYETTEDCPSIMEQWHMREIHSCKVLEGVWIFYELPNYRGRQYLLDKKEYRKPIDWGAASPAVQSFRRI [F27W] | 0.03 ± 0.059 |
| IQIFEKGDFSGQMYETTEDCPSIMEQYHMREIHSCKVLEGVWIFYELPNYRGRQYLLDKKEYRKPIDWGAASPAVQSFRRI [F27Y] | -0.011 ± 0.15 |
| IQIFEKGDFSGQMYETTEDCPSIMEQFAMREIHSCKVLEGVWIFYELPNYRGRQYLLDKKEYRKPIDWGAASPAVQSFRRI [H28A] | 0.045 ± 0.058 |
| IQIFEKGDFSGQMYETTEDCPSIMEQFQMREIHSCKVLEGVWIFYELPNYRGRQYLLDKKEYRKPIDWGAASPAVQSFRRI [H28Q] | 0.037 ± 0.13 |

| Variant | abundance fitness |
| --- | --- |
| IQIFEKGDFSGQMYETTEDCPSIMEQFGMREIHSCKVLEGVWIFYELPNYRGRQYLLDKKEYRKPIDWGAASPAVQSFRRI [H28G] | 0.048 ± 0.047 |
| IQIFEKGDFSGQMYETTEDCPSIMEQFLMREIHSCKVLEGVWIFYELPNYRGRQYLLDKKEYRKPIDWGAASPAVQSFRRI [H28L] | 0.035 ± 0.056 |
| IQIFEKGDFSGQMYETTEDCPSIMEQFCMREIHSCKVLEGVWIFYELPNYRGRQYLLDKKEYRKPIDWGAASPAVQSFRRI [H28C] | 0.031 ± 0.086 |
| IQIFEKGDFSGQMYETTEDCPSIMEQFFMREIHSCKVLEGVWIFYELPNYRGRQYLLDKKEYRKPIDWGAASPAVQSFRRI [H28F] | 0.332 ± 0.26 |
| IQIFEKGDFSGQMYETTEDCPSIMEQFKMREIHSCKVLEGVWIFYELPNYRGRQYLLDKKEYRKPIDWGAASPAVQSFRRI [H28K] | 0.07 ± 0.099 |
| IQIFEKGDFSGQMYETTEDCPSIMEQFIMREIHSCKVLEGVWIFYELPNYRGRQYLLDKKEYRKPIDWGAASPAVQSFRRI [H28I] | 0.079 ± 0.17 |
| IQIFEKGDFSGQMYETTEDCPSIMEQFPMREIHSCKVLEGVWIFYELPNYRGRQYLLDKKEYRKPIDWGAASPAVQSFRRI [H28P] | 0.137 ± 0.056 |
| IQIFEKGDFSGQMYETTEDCPSIMEQFDMREIHSCKVLEGVWIFYELPNYRGRQYLLDKKEYRKPIDWGAASPAVQSFRRI [H28D] | 0.027 ± 0.099 |
| IQIFEKGDFSGQMYETTEDCPSIMEQFNMREIHSCKVLEGVWIFYELPNYRGRQYLLDKKEYRKPIDWGAASPAVQSFRRI [H28N] | 0.009 ± 0.081 |
| IQIFEKGDFSGQMYETTEDCPSIMEQFRMREIHSCKVLEGVWIFYELPNYRGRQYLLDKKEYRKPIDWGAASPAVQSFRRI [H28R] | -0.047 ± 0.05 |
| IQIFEKGDFSGQMYETTEDCPSIMEQFWMREIHSCKVLEGVWIFYELPNYRGRQYLLDKKEYRKPIDWGAASPAVQSFRRI [H28W] | 0.05 ± 0.072 |
| IQIFEKGDFSGQMYETTEDCPSIMEQFSMREIHSCKVLEGVWIFYELPNYRGRQYLLDKKEYRKPIDWGAASPAVQSFRRI [H28S] | 0.042 ± 0.069 |
| IQIFEKGDFSGQMYETTEDCPSIMEQFMMREIHSCKVLEGVWIFYELPNYRGRQYLLDKKEYRKPIDWGAASPAVQSFRRI [H28M] | -0.05 ± 0.089 |
| IQIFEKGDFSGQMYETTEDCPSIMEQFEMREIHSCKVLEGVWIFYELPNYRGRQYLLDKKEYRKPIDWGAASPAVQSFRRI [H28E] | 0.006 ± 0.09 |
| IQIFEKGDFSGQMYETTEDCPSIMEQFYMREIHSCKVLEGVWIFYELPNYRGRQYLLDKKEYRKPIDWGAASPAVQSFRRI [H28Y] | 0.035 ± 0.11 |
| IQIFEKGDFSGQMYETTEDCPSIMEQFVMREIHSCKVLEGVWIFYELPNYRGRQYLLDKKEYRKPIDWGAASPAVQSFRRI [H28V] | -0.011 ± 0.052 |
| IQIFEKGDFSGQMYETTEDCPSIMEQFTMREIHSCKVLEGVWIFYELPNYRGRQYLLDKKEYRKPIDWGAASPAVQSFRRI [H28T] | 0.036 ± 0.08 |

Source: the Human Domainome abundance scans (Beltran et al. 2025)
